T1: TNF receptor 1 Fc fusion protein (R&D Systems) (human, UniProt P19438 30-211, limits assumed)
T1 construct: also called recombinant TNF receptor 1 (p55); not shown: Fc part of the bought fusion protein, captured by an anti-human Fc antibody
T1 sequence (looked up): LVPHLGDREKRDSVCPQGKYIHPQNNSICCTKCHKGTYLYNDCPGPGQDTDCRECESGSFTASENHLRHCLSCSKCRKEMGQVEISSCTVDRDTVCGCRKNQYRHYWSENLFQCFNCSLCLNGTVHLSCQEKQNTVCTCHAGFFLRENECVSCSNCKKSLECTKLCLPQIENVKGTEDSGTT

T2: Biotinylated human TNFRI (human, UniProt P19438 30-211, limits assumed, biotinylated (approx 1 biotin per molecule))
T2 sequence (looked up): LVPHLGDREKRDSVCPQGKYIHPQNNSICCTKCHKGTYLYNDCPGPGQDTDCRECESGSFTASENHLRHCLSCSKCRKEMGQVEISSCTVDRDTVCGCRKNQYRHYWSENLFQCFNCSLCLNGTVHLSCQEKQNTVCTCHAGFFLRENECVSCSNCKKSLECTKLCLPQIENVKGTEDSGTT


Columns and labels:
[1] = molecular target: T1, TNF receptor 1 Fc fusion protein (R&D …); experiment: DOM1 receptor binding assay (RBA): dAb titrated against TNF binding to TNF receptor 1
Description: Assays for the measurement of receptor binding by a ligand, e.g., a cytokine, are known in the art. […] Briefly, Maxisorp plates are incubated overnight with […] anti-human Fc mouse monoclonal antibody (Zymed, San Francisco, USA). […] The plate is washed to remove any unbound protein before the detection step. […] The reaction is stopped by the addition of HCl and the absorbance is read at 450 nm.

[2] = molecular target: p55 TNF-α receptor on MRC-5 cells (human) (UniProt P19438); experiment: cell-based or functional assay
p55 TNF-α receptor on MRC-5 cells (human), sequence (P19438 30-455): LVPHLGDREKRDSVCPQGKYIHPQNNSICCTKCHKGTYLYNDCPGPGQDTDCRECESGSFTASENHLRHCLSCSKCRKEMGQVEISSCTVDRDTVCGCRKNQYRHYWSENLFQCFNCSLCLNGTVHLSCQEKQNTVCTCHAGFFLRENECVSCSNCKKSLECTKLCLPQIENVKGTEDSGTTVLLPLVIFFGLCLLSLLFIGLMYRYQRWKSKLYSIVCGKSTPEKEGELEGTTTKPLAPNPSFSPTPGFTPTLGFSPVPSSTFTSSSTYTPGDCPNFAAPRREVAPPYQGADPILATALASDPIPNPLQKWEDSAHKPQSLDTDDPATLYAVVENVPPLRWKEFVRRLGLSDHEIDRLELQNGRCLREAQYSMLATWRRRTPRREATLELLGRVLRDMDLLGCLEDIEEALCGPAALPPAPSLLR

Biotinylated human TNFRI [3] = molecular target: T2, Biotinylated human TNFRI; experiment: SPR (Biacore), biotinylated human TNFRI on streptavidin chip, dAb injected; KD from mean kd/ka
Text: (§1) The effect of PEGylation on the binding affinity of TAR2-10-27 for its antigen was investigated using Biacore. All the PEGylated formats were generated using TAR2-10-27cys (see Example 2). The following methodology was used to determine the on and off rates of each PEGylated dAb format for the antigen. Biotinylated human TNFRI (approx 1 biotin per molecule) was coated onto a single flow cell of a Biacore streptavidin sensor chip at a density of approximately 400 RU. A concentration series of each dAb or PEGylated dAb (2.6 μM, 770 nM, 260 nM, 77 nM and 2.6 nM) was sequentially injected (45 μl injection at a flow rate of 30 μl/min) over both the TNFRI coated flow cell and an uncoated flow cell (streptavidin), (a subtractive curve was generated by subtracting the uncoated flow cell curve from the TNFRI flow cell curve). The off-rate was analysed for five minutes after the injection of each sample after which the surface was regenerated by injection of 10 mM glycine pH 3.
(§2) Data generated from the Biacore was fitted using the curve fitting software (Biaevaluation 3.2) and the association constant (kₐ) and dissociation constant (kd) determined (Table 8).

Biotinylated human TNFRI [4] = molecular target: T2, Biotinylated human TNFRI; experiment: SPR (Biacore), biotinylated human TNFRI on streptavidin chip, dAb injected
Text: as §1, §2

[5] = molecular target: T1, TNF receptor 1 Fc fusion protein (R&D …); experiment: TNF receptor binding assay: dAb titrated against TNF binding to TNF receptor 1
hen egg white lysozyme = hen egg white lysozyme (hen, UniProt P00698 19-147); experiment: batch binding to lysozyme-Sepharose affinity resin, SDS-PAGE read-out
hen egg white lysozyme, sequence (P00698 19-147 limits assumed): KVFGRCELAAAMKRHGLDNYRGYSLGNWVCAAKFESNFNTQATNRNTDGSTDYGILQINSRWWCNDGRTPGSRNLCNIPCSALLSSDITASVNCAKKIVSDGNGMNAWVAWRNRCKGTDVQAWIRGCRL
Description: A HEL4 affinity based resin (based on the antigen, hen egg white lysozyme) was produced to test the functionality of the PEGylated dAb. Lysozyme was coupled to NETS activated Sepharose 4B resin (Amersham Pharmacia) following the manufacturer's instructions. The PEGylated samples (5 μg) were then mixed with the affinity resin (100 μl) and allowed to bind in PBS at room temperature for 30 mins. The resin was then extensively washed with PBS (3×1 ml) to remove unbound protein. The affinity resin was then run on a SDS-PAGE to determine if the PEGylated HEL4 had bound to the matrix (see Section 8.3).

Row | Binder | IC50 [1] | MRC5 cell assay ND 50 [2] | further results
1 | TAR2-10-27 Asp62cys blocked (other, Cys62 blocked with N-ethylmaleimide, For numbering and entry offset see m28) VH: ASTEVQLLESGGGLVQPGGSLRLSCAASGFTFEWYWMGWVRQAPGKGLEWVSAISGSGGSTYYACSVKGRFTISRDNSKNTLYLQMNSLRAEDAAVYYCAKVKLGGGPNFGYRGQGTLVTVSS | 15 nM | 430 nM | 
2 | TAR2-10-27 Asp62cys 30K MAL PEG (protein, 30K MAL-PEG on Cys62) VH: ASTEVQLLESGGGLVQPGGSLRLSCAASGFTFEWYWMGWVRQAPGKGLEWVSAISGSGGSTYYACSVKGRFTISRDNSKNTLYLQMNSLRAEDAAVYYCAKVKLGGGPNFGYRGQGTLVTVSS |  | 1000 nM | 
3 | TAR2-10-27 Thr117cys 30K MAL PEG (other, 30K MAL-PEG on Cys117, For numbering and entry offset see m28) VH: ASTEVQLLESGGGLVQPGGSLRLSCAASGFTFEWYWMGWVRQAPGKGLEWVSAISGSGGSTYYADSVKGRFTISRDNSKNTLYLQMNSLRAEDAAVYYCAKVKLGGGPNFGYRGQGTLVCVSS | 8 nM | 700 nM | 
4 | TAR210-27 2 × 20K MAL PEG (other, 2 × 20K (40K branched) MAL-PEG on the C-terminal Cys (Ser120cys), For the limits of the entry see m36; also called 40K PEGylated monomer (TAR2-10-27)) VH: ASTEVQLLESGGGLVQPGGSLRLSCAASGFTFEWYWMGWVRQAPGKGLEWVSAISGSGGSTYYADSVKGRFTISRDNSKNTLYLQMNSLRAEDAAVYYCAKVKLGGGPNFGYRGQGTLVTVSC |  |  | Kd (Biotinylated human TNFRI [3]): 69.2 nM; koff (Biotinylated human TNFRI [4]): 0.00517 s⁻¹; kon (Biotinylated human TNFRI [4]): 74700 M⁻¹ s⁻¹; IC50 [5]: ~20 nM
5 | TAR2-10-27 Glu89cys blocked (other, Cys89 blocked with N-ethylmaleimide, For numbering and entry offset see m28) VH: ASTEVQLLESGGGLVQPGGSLRLSCAASGFTFEWYWMGWVRQAPGKGLEWVSAISGSGGSTYYADSVKGRFTISRDNSKNTLYLQMNSLRACDAAVYYCAKVKLGGGPNFGYRGQGTLVTVSS | 3 nM | 70 nM | 
6 | TAR2-10-27 Leu115cys blocked (other, Cys115 blocked with N-ethylmaleimide, For numbering and entry offset see m28) VH: ASTEVQLLESGGGLVQPGGSLRLSCAASGFTFEWYWMGWVRQAPGKGLEWVSAISGSGGSTYYADSVKGRFTISRDNSKNTLYLQMNSLRAEDAAVYYCAKVKLGGGPNFGYRGQGTCVTVSS | 3 nM | 30 nM | 
7 | TAR2-10-27 Gln112cys blocked (other, Cys112 blocked with N-ethylmaleimide, For numbering and entry offset see m28) VH: ASTEVQLLESGGGLVQPGGSLRLSCAASGFTFEWYWMGWVRQAPGKGLEWVSAISGSGGSTYYADSVKGRFTISRDNSKNTLYLQMNSLRAEDAAVYYCAKVKLGGGPNFGYRGCGTLVTVSS | 2 nM | 15 nM | 
8 | TAR2-10-27 Gln112cys 30K MAL PEG (other, 30K MAL-PEG on Cys112, For numbering and entry offset see m28) VH: ASTEVQLLESGGGLVQPGGSLRLSCAASGFTFEWYWMGWVRQAPGKGLEWVSAISGSGGSTYYADSVKGRFTISRDNSKNTLYLQMNSLRAEDAAVYYCAKVKLGGGPNFGYRGCGTLVTVSS | 15 nM | 650 nM | 
9 | TAR2-10-27 Pro41cys 30K MAL PEG (other, 30K MAL-PEG on Cys41, For numbering and entry offset see m28) VH: ASTEVQLLESGGGLVQPGGSLRLSCAASGFTFEWYWMGWVRQACGKGLEWVSAISGSGGSTYYADSVKGRFTISRDNSKNTLYLQMNSLRAEDAAVYYCAKVKLGGGPNFGYRGQGTLVTVSS | 8 nM | 200 nM | 
10 | TAR2-10-27 Glu89cys 30K MAL PEG (other, 30K MAL-PEG on Cys89, For numbering and entry offset see m28) VH: ASTEVQLLESGGGLVQPGGSLRLSCAASGFTFEWYWMGWVRQAPGKGLEWVSAISGSGGSTYYADSVKGRFTISRDNSKNTLYLQMNSLRACDAAVYYCAKVKLGGGPNFGYRGQGTLVTVSS | 20 nM | 100 nM | 
11 | TAR2-10-27 Gln13cys 30K MAL PEG (other, 30K MAL-PEG on Cys13, For numbering and entry offset see m28) VH: ASTEVQLLESGGGLVCPGGSLRLSCAASGFTFEWYWMGWVRQAPGKGLEWVSAISGSGGSTYYADSVKGRFTISRDNSKNTLYLQMNSLRAEDAAVYYCAKVKLGGGPNFGYRGQGTLVTVSS | 8 nM | 200 nM | 
12 | TAR2-10-27 Ser120cys 30K MAL PEG (other, 30K MAL-PEG on the C-terminal Cys (Ser120cys), TAR2-10-27 cys; For the limits of the entry see m36; also called TAR210-27 30K MAL PEG) VH: ASTEVQLLESGGGLVQPGGSLRLSCAASGFTFEWYWMGWVRQAPGKGLEWVSAISGSGGSTYYADSVKGRFTISRDNSKNTLYLQMNSLRAEDAAVYYCAKVKLGGGPNFGYRGQGTLVTVSC | 10 nM | 600 nM | Kd (Biotinylated human TNFRI [3]): 92.2 nM; koff (Biotinylated human TNFRI [4]): 0.00769 s⁻¹; kon (Biotinylated human TNFRI [4]): 83400 M⁻¹ s⁻¹
13 | TAR210-27 2 × 10K MAL PEG (other, 2 × 10K MAL-PEG on the C-terminal Cys (Ser120cys), For the limits of the entry see m36) VH: ASTEVQLLESGGGLVQPGGSLRLSCAASGFTFEWYWMGWVRQAPGKGLEWVSAISGSGGSTYYADSVKGRFTISRDNSKNTLYLQMNSLRAEDAAVYYCAKVKLGGGPNFGYRGQGTLVTVSC |  |  | Kd (Biotinylated human TNFRI [3]): 79.5 nM; koff (Biotinylated human TNFRI [4]): 0.00954 s⁻¹; kon (Biotinylated human TNFRI [4]): 120000 M⁻¹ s⁻¹
14 | TAR2-10-27 Thr117cys blocked (other, Cys117 blocked with N-ethylmaleimide, For numbering and entry offset see m28) VH: ASTEVQLLESGGGLVQPGGSLRLSCAASGFTFEWYWMGWVRQAPGKGLEWVSAISGSGGSTYYADSVKGRFTISRDNSKNTLYLQMNSLRAEDAAVYYCAKVKLGGGPNFGYRGQGTLVCVSS | 3 nM | 30 nM | 
15 | TAR2-10-27 Pro41cys blocked (other, Cys41 blocked with N-ethylmaleimide, For numbering and entry offset see m28) VH: ASTEVQLLESGGGLVQPGGSLRLSCAASGFTFEWYWMGWVRQACGKGLEWVSAISGSGGSTYYADSVKGRFTISRDNSKNTLYLQMNSLRAEDAAVYYCAKVKLGGGPNFGYRGQGTLVTVSS | 1 nM | 45 nM | 
16 | TAR2-10-27 Gln13cys blocked (other, Cys13 blocked with N-ethylmaleimide, For numbering and entry offset see m28) VH: ASTEVQLLESGGGLVCPGGSLRLSCAASGFTFEWYWMGWVRQAPGKGLEWVSAISGSGGSTYYADSVKGRFTISRDNSKNTLYLQMNSLRAEDAAVYYCAKVKLGGGPNFGYRGQGTLVTVSS | 2 nM | 30 nM | 
17 | TAR210-27 20K MAL PEG (other, 20K MAL-PEG on the C-terminal Cys (Ser120cys), For the limits of the entry see m36) VH: ASTEVQLLESGGGLVQPGGSLRLSCAASGFTFEWYWMGWVRQAPGKGLEWVSAISGSGGSTYYADSVKGRFTISRDNSKNTLYLQMNSLRAEDAAVYYCAKVKLGGGPNFGYRGQGTLVTVSC |  |  | Kd (Biotinylated human TNFRI [3]): 150 nM; koff (Biotinylated human TNFRI [4]): 0.012 s⁻¹; kon (Biotinylated human TNFRI [4]): 79900 M⁻¹ s⁻¹
18 | TAR2-10-27 Ser120cys blocked (other, C-terminal Cys (Ser120cys) blocked with N-ethylmaleimide, TAR2-10-27 cys; the entry already carries Ser120cys) VH: ASTEVQLLESGGGLVQPGGSLRLSCAASGFTFEWYWMGWVRQAPGKGLEWVSAISGSGGSTYYADSVKGRFTISRDNSKNTLYLQMNSLRAEDAAVYYCAKVKLGGGPNFGYRGQGTLVTVSC | 3 nM | 30 nM | Kd (Biotinylated human TNFRI [3]): 10.3 nM; koff (Biotinylated human TNFRI [4]): 0.00596 s⁻¹; kon (Biotinylated human TNFRI [4]): 577000 M⁻¹ s⁻¹
19 | TAR2-10-27 Leu115cys 30K MAL PEG (other, 30K MAL-PEG on Cys115, For numbering and entry offset see m28) VH: ASTEVQLLESGGGLVQPGGSLRLSCAASGFTFEWYWMGWVRQAPGKGLEWVSAISGSGGSTYYADSVKGRFTISRDNSKNTLYLQMNSLRAEDAAVYYCAKVKLGGGPNFGYRGQGTCVTVSS | 10 nM | 300 nM | 
20 | TAR210-27 5K MAL PEG (other, 5K MAL-PEG on the C-terminal Cys (Ser120cys), For the limits of the entry see m36) VH: ASTEVQLLESGGGLVQPGGSLRLSCAASGFTFEWYWMGWVRQAPGKGLEWVSAISGSGGSTYYADSVKGRFTISRDNSKNTLYLQMNSLRAEDAAVYYCAKVKLGGGPNFGYRGQGTLVTVSC |  |  | Kd (Biotinylated human TNFRI [3]): 122 nM; koff (Biotinylated human TNFRI [4]): 0.011 s⁻¹; kon (Biotinylated human TNFRI [4]): 90000 M⁻¹ s⁻¹
21 | HEL4 PEGylated with SPA-PEG (other, SPA-PEG on surface lysine residues (sites not given), also called PEGylated HEL4) VH: EVQLLESGGGLVQPGGSLRLSCAASGFRISDEDMGWVRQAPGKGLEWVSSIYGPSGSTYYADSVKGRFTISRDNSKNTLYLQMNSLRAEDTAVYYCASALEPLSEPLGFWGQGTLVTVSS |  |  | binding result (hen egg white lysozyme): binds
22 | HEL4 PEGylated with NHS-PEG (other, NHS-PEG on surface lysine residues (sites not given), also called PEGylated HEL4; HEL4 40K PEG-NHS) VH: EVQLLESGGGLVQPGGSLRLSCAASGFRISDEDMGWVRQAPGKGLEWVSSIYGPSGSTYYADSVKGRFTISRDNSKNTLYLQMNSLRAEDTAVYYCASALEPLSEPLGFWGQGTLVTVSS |  |  | binding result (hen egg white lysozyme): binds
